Test results published in paper PMC9891525 (PLOS Pathogens, 2023).

Each binder was assayed against SARS-CoV-2 WT spike RBD (SARS-CoV-2, wild type, UniProt P0DTC2) (assay: SPR; Biacore 2000; […]; 45 μL/min, 180 s binding, […] dissociation; 1:1 binding model). Conditions: both partners purified.

Binder | Kd [nM] | other [times]
purified monoclonal antibody d7 (S97Y, D54I, N57H) (antibody, V domains shown) VH: QVQLVESGGGVVQPGRSLRLSCAASGFTFSNYAMYWVRQAPGKGLEWVAVISYIGSHKYYADSVKGRFTISRDNSKNTLYLQMNSLRTEDTAVYYCASGSDYGDYLLVYWGQGTLVTVSS VL: QSALTQPASVSGSPGQSITISCTGTSSDVGGYNYVSWYQQHPGKAPKLMIYDVSKRPSGVSNRFSGSKSGNTASLTISGLQSEDEADYYCNSLTSIYTWVFGGGTKLTVL | 0.15 | 3
purified monoclonal antibody A3 (N57A, L106N) (antibody, V domains shown) VH: QVQLVESGGGVVQPGRSLRLSCAASGFTFSNYAMYWVRQAPGKGLEWVAVISYDGSAKYYADSVKGRFTISRDNSKNTLYLQMNSLRTEDTAVYYCASGSDYGDYNLVYWGQGTLVTVSS VL: QSALTQPASVSGSPGQSITISCTGTSSDVGGYNYVSWYQQHPGKAPKLMIYDVSKRPSGVSNRFSGSKSGNTASLTISGLQSEDEADYYCNSLTSISTWVFGGGTKLTVL | 0.17 | 3
purified monoclonal antibody d9 (S97Y, D54L, N57H) (antibody, V domains shown) VH: QVQLVESGGGVVQPGRSLRLSCAASGFTFSNYAMYWVRQAPGKGLEWVAVISYLGSHKYYADSVKGRFTISRDNSKNTLYLQMNSLRTEDTAVYYCASGSDYGDYLLVYWGQGTLVTVSS VL: QSALTQPASVSGSPGQSITISCTGTSSDVGGYNYVSWYQQHPGKAPKLMIYDVSKRPSGVSNRFSGSKSGNTASLTISGLQSEDEADYYCNSLTSIYTWVFGGGTKLTVL | 0.17 | 3
